# According to patent US20250090676A1 (SUTRO BIOPHARMA, published 2025):
# Where a chain is given by its changes, count along the chain named.
# B1: SRP1848-A01 (antibody, V domains shown)
# VH: EVQLVESGGGLVQPGGSLRLSCAASGFNITRYSIHWVRQAPGKGLEWVAGILPESGGTSYADSVKGRFTISADTSKNTAYLQMNSLRAEDTAVYYCARHIYPWDWFSNYVLDYWGQGTLVTVSS
# VL: not shown
# notes: HC variant paired with trastuzumab LC, cell-free expressed, HIS- and FLAG-tagged; also called Antibody 1
# B2: SRP1848-F04 (antibody, V domains shown)
# VH: EVQLVESGGGLVQPGGSLRLSCAASGFNISNYSIHWVRQAPGKGLEWVGEIYPIDGITDYADSVKGRFTISADTSKNTAYLQMNSLRAEDTAVYYCARGSWFWRSGYGYYLDYWGQGTLVTVSS
# VL: not shown
# notes: HC variant paired with trastuzumab LC, cell-free expressed, HIS- and FLAG-tagged; also called Antibody 39
# B3: SRP1848-A06 (antibody, V domains shown)
# VH: B2 VH with S30G, Y32S, S33Y, E50G, Y52T, I57N, S100A, F102S, L111I
# VL: not shown
# notes: HC variant paired with trastuzumab LC, cell-free expressed, HIS- and FLAG-tagged; also called Antibody 4
# B4: SRP1848-A08 (antibody, V domains shown)
# VH: B2 VH with F27S, S30R, N31K, Y32H, E50S, I54N, I57T, S105A
# VL: not shown
# notes: HC variant paired with trastuzumab LC, cell-free expressed, HIS- and FLAG-tagged; also called Antibody 6
# B5: SRP1848-A07 (antibody, V domains shown)
# VH: B2 VH with S30G, N31Y, Y32H, Y52F, I54V, I57T, Q82H, S100F, F102A
# VL: not shown
# notes: HC variant paired with trastuzumab LC, cell-free expressed, HIS- and FLAG-tagged; also called Antibody 5
# B6: SRP1848-A04 (antibody, V domains shown)
# VH: B2 VH with S30D, N31Q, Y32S, E50V, I54V, I57T, S100A, F102S, L111I
# VL: not shown
# notes: HC variant paired with trastuzumab LC, cell-free expressed, HIS- and FLAG-tagged; also called Antibody 3
# Target: T1, human folate receptor alpha (hFOLR1) (human, UniProt P15328 25-234)
# T1 construct: endogenous on FOLR1-positive KB and Igrov1 cells (cell killing); also called human FolR1; FolRα
# Test: FACS, CHO-hFOLR1 cells;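 note: flow cytometry of serially diluted antibodies binding CHO cells stably expressing the receptor, 60 min on ice, mixed with dye-tagged parental CHO as background control, one-site specific fit with Hill slope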
# T1 sequence (P15328 25-234 limits assumed): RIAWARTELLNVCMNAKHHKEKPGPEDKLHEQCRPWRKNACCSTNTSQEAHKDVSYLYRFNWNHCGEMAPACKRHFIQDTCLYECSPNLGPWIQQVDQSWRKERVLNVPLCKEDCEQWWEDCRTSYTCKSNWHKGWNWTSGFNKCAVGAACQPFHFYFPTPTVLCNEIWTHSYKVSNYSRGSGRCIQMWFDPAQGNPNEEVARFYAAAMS
Binder,Bmax (MFI),Kd [nM]
B1,25900,0.39
B2,26900,0.73
B3,24500,0.47
B4,28600,0.62
B5,29200,0.61
B6,26800,0.43

# Target: T2, cynomolgus monkey folate receptor alpha (cynomolgus monkey, UniProt P15328 25-234 (human entry))
# T2 construct: Expressed on the surface of stably transfected CHO cells; also called cyno FolR1; CHO-cyno FolR1
# Test: FACS, CHO-cFOLR1 cells
# T2 sequence (P15328 other isoform, or with tags, fused parts or gaps limits assumed): as the sequence (P15328 25-234 limits assumed) above, with I2T, W4R, R37K, Q117R, A146P, H171Y counted along it
Binder,Bmax (MFI),Kd [nM]
B1,22600,0.44
B2,26400,0.55
B3,20200,0.3
B4,26200,0.45
B5,23600,0.43
B6,23100,0.3

# Target: T3, murine folate receptor alpha (mouse, UniProt P35846 25-232)
# T3 construct: Expressed on the surface of stably transfected CHO cells; also called mouse FolR1; CHO-mouse FolR1
# Test: FACS, CHO-mFOLR1 cells;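 note: flow cytometry binding of serially diluted test antibodies to transfected CHO cells on ice, mean fluorescence intensity, parental CHO cells give background, Kd from one-site specific binding fit with Hill slope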
# T3 sequence (P35846 25-232 limits assumed): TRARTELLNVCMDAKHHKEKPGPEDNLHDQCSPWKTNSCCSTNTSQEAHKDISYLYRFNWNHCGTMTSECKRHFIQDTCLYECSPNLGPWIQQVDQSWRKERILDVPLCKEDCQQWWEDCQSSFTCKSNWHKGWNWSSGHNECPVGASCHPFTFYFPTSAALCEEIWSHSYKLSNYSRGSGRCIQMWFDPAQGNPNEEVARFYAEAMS
Binder,Bmax (MFI),Kd [nM]
B1,16500,0.8
B2,2740,11
B3,2770,2.4
B4,3200,2.5
B5,9650,0.9
B6,3890,2

# Target: T1, human folate receptor alpha (hFOLR1)
# Test: cell-based or functional assay
Binder,"Igrov, 2° Antibody Cell Killing, Nb-SC239: EC50 [nM]","Igrov, 2° Antibody Cell Killing, Nb-SC239: Span [%]","KB, 2° Antibody Cell Killing, Nb-239: EC50 [nM]","KB, 2° Antibody Cell Killing, Nb-239: Span [%]"
B1,0.015,71,0.064,94
B2,0.015,73,0.096,93
B3,–,72,0.046,93
B4,0.013,65,0.039,93
B5,0.029,68,0.062,95
B6,0.015,64,0.052,92
